For one molecule, BE% (percent [125I]NDP-α-MSH displacement results are on record in patent US20260049105A1, “SELECTIVE MC4R LIGAND FOR TREATING OBESITY AND COGNITIVE LOSS” (ARIZONA BOARD OF REGENTS ON BEHALF OF THE UNIVERSITY OF …, priority 2022, published 2026).

In the assay the target is human melanocortin 4 receptor (human), P32245. Kind of assay: competition with 125I-NDP-α-MSH on whole HEK293 cells expressing hMC4R. The conditions noted are these: remark: other sources report otherwise.
Sequence of human melanocortin 4 receptor (human), P32245 (P32245 whole entry): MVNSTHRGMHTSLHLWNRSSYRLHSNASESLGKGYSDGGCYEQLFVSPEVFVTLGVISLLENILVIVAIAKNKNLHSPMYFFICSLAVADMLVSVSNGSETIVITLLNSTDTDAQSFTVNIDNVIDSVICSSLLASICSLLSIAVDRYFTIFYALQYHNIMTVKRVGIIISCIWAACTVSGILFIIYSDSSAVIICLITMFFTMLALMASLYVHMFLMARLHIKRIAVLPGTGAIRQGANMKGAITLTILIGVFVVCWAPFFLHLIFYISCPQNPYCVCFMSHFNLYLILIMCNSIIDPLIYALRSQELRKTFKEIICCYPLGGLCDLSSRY

B1: Ac-Arg-cyclo[Asp-Pip-D-Phe(4-F)-βArg-Trp-Lys]-NH2 (peptide)
peptide: RDXFRWK
modifications: not fully specified; here or on the partner: N-terminal acetyl (Ac); C-terminal amide (NH2); cyclized through the side chains of Asp2 and Lys7; Pip at 3; D-Phe(4-F) at 4; βArg at 5
For B1, the BE% (percent [125I]NDP-α-MSH displacement at 10 µM) is 23%.
